One may read the Kd as the constant that tells how readily two partners part at equilibrium. Low values mean a tighter complex, high ones a looser complex.

The target in assay [1] is HOTag6-G10-Ub (designed tetrameric ubiquitin construct). Nature of the assay: NMR titration.
Assay [2] has as its target T1, M1-linked tetraubiquitin (M1-Ub4) (UniProt P0CG48 1-76; P0CG48 1-76; P0CG48 1-76; P0CG48 1-76). The assay is described as follows: NMR titration.
Assay [3] addresses HOTag6-G10-Ub (designed tetrameric ubiquitin construct). The assay is described as follows: fluorescence polarisation. Background: In fluorescence polarisation assays a small probe gives low polarisation when free and higher when bound to something large.
Assay [4] addresses ubiquitin (Ub) (UniProt P0CG48 1-76). Nature of the assay: fluorescence polarisation.
Assay [5] has as its target T1, M1-linked tetraubiquitin (M1-Ub4). The assay is described as follows: fluorescence polarisation.

Residue numbers refer to the chain shown, from its start. Names may count otherwise.

T1 sequence (P0CG48 1-304, one chain of several): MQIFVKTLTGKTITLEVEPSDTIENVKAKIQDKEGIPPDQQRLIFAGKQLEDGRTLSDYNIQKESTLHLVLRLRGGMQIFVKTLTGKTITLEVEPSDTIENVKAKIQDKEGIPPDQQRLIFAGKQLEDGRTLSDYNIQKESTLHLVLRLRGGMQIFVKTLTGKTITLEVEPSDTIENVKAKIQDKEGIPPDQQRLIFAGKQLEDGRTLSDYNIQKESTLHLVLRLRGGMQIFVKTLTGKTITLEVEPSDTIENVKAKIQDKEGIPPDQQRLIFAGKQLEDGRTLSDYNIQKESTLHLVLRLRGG

B1: UBQLN2 450–624 (domain or fragment, UniProt Q9UHD9 450-624, looked up)
chain: RAMQALMQIQQGLQTLATEAPGLIPSFTPGVGVGVLGTAIGPVGPVTPIGPIGPIVPFTPIGPIGPIGPTGPAAPPGSTGSGGPTGPTVSSAAPSETTSPTSESGPNQQFIQQMVQALAGANAPQLPNPEVRFQQQLEQLNAMGFLNREANLQALIATGGDINAAIERLLGSQPS
Turning to B1, the Kd in assay [1] worked out at 8.8 µM; in assay [2], 12.8 µM.

B2: fluorescently-labeled UBQLN2 450–624 (S624C, Alexa Fluor 488) (domain or fragment, UniProt Q9UHD9 450-624, looked up)
chain: B1 chain with S175C
modifications: Alexa Fluor 488 C5 Maleimide on the cysteine of S624C
Turning to B2, the Kd in assay [3] came out at 7 µM; in assay [4] it was 3.4 µM; in assay [5], 5.1 µM.

(Values after publication PMC9346500 (EMBO Reports, 2022).)
